# Laboratory results taken from the DeepSol protein solubility set.
# Test: soluble on expression in E. coli; label from the status in PepcDB or PDB records
row,Sequence,soluble on expression in E. coli
1,MNGAQWVVHALRAQGVKTVFGYPGGAIMPVYDALYDGGVEHLLCRHEQGAAMAAIGYARSTGKTGVCIATSGPGATNLITGLADALLDSVPVVAITGQVSAPFIGTDAFQEVDVLGLSLACTKHSFLVQSLEELPRIMAEAFEVANAGRPGPVLVDIPKDIQLASGELEPWFTTVANEATFPQADVEQARQMLEQAKKPMLYVGGGVGMAQAVPALRKFIAVTQMPVTCTLKGLGAVEADYPYYLGMLGMHGTKAANFAVQECDLLIAVGARFDDRVTGKLNTFAPNASVIHMDIDPAEMNKLRQAHVALQGDLNSLLPALQQPLKIDAWRQSCAELRAEHAWRYDHPGETIYAPLLLKQLSERKPADSVVTTDVGQHQMWSAQHMTYTRPENFITSSGLGTMGFGLPAAVGAQVARPNDTVICISGDGSFMMNVQELGTVKRKQLPLKIVLLDNQRLGMVRQWQQLFFQERYSETTLTDNPDFLMLASAFGIPGQHITRKDQVEAALDTMLASEGPYLLHVSIDELENVWPLVPPGASNSEMLEKLS,not soluble
2,MNGASRGDVQRPTPVQAPAKRPIPPTVFRFEKASKIGTSLDTTPKELPIRRPVPLPGPRFVKDVNPSPPATSSPNVQTQCHQPPVVRSQTHQASVSQTTPTQTTPSQYTPASVSTARAPQFHRSSHVTPSQQQRIEQAFGPAPVSQSQPQNGSYIQYNEPSTSVASTTTSFYSPNESEPVFTHAISFKPNEPENGQKAREQLELLDSGKINEINQSKVPTTIELPPNCKLFQYSWVLDGIPRTLLVPMPMDATEEDVKAMLPKTLEMDSNLFNNARPRDELPVLSFPNGTVPNVEMIGPKVQQPMLVNPKQFNRIMRRREMRQQLEASGRLPLARQKYLHESRHLHALKRKRGLDGRFDNTKTAESSSMVSSTTSPRKLKRRNRLPGEETSDSSSIVLPSPVEIQPKGGIVNSSMPSTSTGYINNGMDHQTDYIEHQQPMSTYDQYHDHVQYIAPDGNVNYHNNHDNGVDLTGSDGQSFTNL,soluble
3,MNHKALFSGKLVFIGFGSITRATLGLLGNVQRFDVSRIVVIAPGIKGSEPFVKSGVTFIDQALTSDTMESVLGSIVGQGDFIVNLSVNVCSADVIRFAYAHDALYLDTCIEPWGNTYNSPSLTASQRSNYALRDQLRTLGAELGPGPTAVVAHGANPGLISHFLKCALSALAEQLSVAVPRHQGGIDWGNLSMKLGVKVIHIAERDTQRSTRIKSDGEFVNTWSVDGFVSEAGQPAELGWGSHEKNWPPFARHHQFGSDNAIYLDRPGACVSVKTWTPNGGPCNAMLITHNEAISIPELLTVRNEGALSYRPTVHYAYHPCDDALLSINEYTGRGWHAQDRQRIMLDEITPGGIDALGVLIMGHKLNAYWYGSILNIDEARRLAPFNNATSLQVAAGVYSGIIWAIENPDRGIVEPEQMDHQRVMEIALPFLGKFGGVLTDWTPLKTGNALFRKPDADACPWQFEHFTAALEHHHHHH,not soluble
4,MNHQYQDLIDIFNQTFYADYNTKLELGGDEPIYLPADERVSYHRIIFARGFYASALHEIAHWCVAGPQRRLLEDFGYWYEPDGRTAQVQAEFEKVEIRPQAYEWILAISAGFPFTVSCDNLNGDFEPDRLAFMSKVHSEVLKILEQGLPQRVKMLSEALRAFYQTPALLPEHFVVK,not soluble
5,MNHYVYILECKDGSWYTGYTTDVDRRIKKHASGKGAKYTRGRGPFRLVATWAFPSKEEAMRWEYEVKHLSRRKKEQLVSLKGGPYENTTKLSTTMAGDPLEHHHHHH,soluble
6,MNIENPAPILDQDPYVQAYPETRAFWEAAAQGRFVLPRCRDCGQSHWYPRGLCPLCGSTALEWQDAAGTGTLYSYSVMRAAPQPYAIAYVQLAEGPLVLTNIVDSDLERLRIGQPVRVAFQRTQEGRSAPVFVALAD,not soluble
7,MNIKRNIIFALESRKKDGVLIVENVPIRMRVNFASQRIEFTTGYRIDVAKWDADKQRVKNGCTNKLKQSASEINAALLGYYTELQEVFKRFEVAEVMPSPADVKSAFNARHRSDDVQTEQTSDKPDASAEFYKAFDEFVRVCGRQNDWTHATYEKFAAVKNHLRSFRADLSFSFFNEVGLTEYVRYLREVRKMRNSTIGKQLSFLKWFLRWSFGQGIHSNNAYDTFRPKLKDTQKKIIFLTWEELTKLREFEIPPAKQSLDRVRDVFLFQCFTGLRYSDVYNLRRSDIKEDHIEVTTIKTSDSLVIELNKHSKAILEKYQDVVFEHDKALPVITNQKMNEYLKELAELAGINEPIRQTYYKGNERIDEVTPKYALLGTHAGRRTFICNALALGIPPQVVMKWTGHSDYKAMKPYIDIADDIKANAMSKFNQL,not soluble
8,MNILNIKEGQHYIAKIESHSFVDGEGVRCSVYVSGCPFQCKGCYNVKAQNFKYGEPFELEMLEEILDYCAPSYIEGLSILGGEPFCNLFITLQLVEAFRQRFGHTKTIWVWTGFLFEYLKQQDDARKSLLEHIDVLVDGMFIQHLYRPNLPYKGSLNQRVIDVQSSLQKEQVIEYLTKLEHHHHHH,not soluble
9,MNINEILKKLINKSDLEINEAEELAKAIIRGEVPEILVSAILVALRMKGESKNEIVGFARAMRELAIKIDVPNAIDTAGTGGDGLGTVNVSTASAILLSLVNPVAKHGNRAVSGKSGSADVLEALGYNIIVPPERAKELVNKTNFVFLFAQYYHPAMKNVANVRKTLGIRTIFNILGPLTNPANAKYQLMGVFSKDHLDLLSKSAYELDFNKIILVYGEPGIDEVSPIGNTFMKIVSKRGIEEVKLNVTDFGISPIPIEKLIVNSAEDSAIKIVRAFLGKDEHVAEFIKINTAVALFALDRVGDFREGYEYADHLIEKSLDKLNEIISMNGDVTKLKTIVVKSSG,soluble
10,MNIPQLTALCLRYHGVLLDASEEVVHVAVVDAPSHELLDALHFATTKRIEITCWTRQQMEGHASRTQQTLPVAVQEKHQPKAELLTRTLQSALEQRASDIHIEPADNAYRIRLRIDGVLHPLPDVSPDAGVALTARLKVLGNLDIAEHRLPQDGQFTVELAGNAVSFRIATLPCRGGEKVVLRLLQQVGQALDVNTLGMQPLQLADFAHALQQPQGLVLVTGPTGSGKTVTLYSALQKLNTADINICSVEDPVEIPIAGLNQTQIHPRAGLTFQGVLRALLRQDPDVIMIGEIRDGETAEIAIKAAQTGHLVLSTLHTNSTCETLVRLQQMGVARWMLSSALTLVIAQRLVRKLCPHCRRQQGEPIHIPDNVWPSPLPHWQAPGCVHCYHGFYGRTALFEVLPITPVIRQLISANTDVESLETHARQAGMRTLFENGCLAVEQGLTTFEELIRVLGMPHGE,soluble
11,MNIPTTTTKGEQAKSQLIAAALAQFGEYGLHATTRDIAALAGQNIAAITYYFGSKEDLYLACAQWIADFLGEKFRPHAEKAERLFSQPAPDRDAIRELILLACKNMIMLLTQEDTVNLSKFISREQLSPTSAYQLVHEQVIDPLHTHLTRLVAAYTGCDANDTRMILHTHALLGEVLAFRLGKETILLRTGWPQFDEEKAELIYQTVTCHIDLILHGLTQRSLD,soluble
12,MNIQPTIQSGITSQNNQHHQTEQIPSTQIPQSELPLGCQAGFVVNIPDDIQQHAPECGETTALLSLIKDKGLLSGLDEYIAPHLEEGSIGKKTLDMFGLFNVTQMALEIPSSVSGISGKYGVQLNIVKPDIHPTSGNYFLQIFPLHDEIGFNFKDLPGPLKNALSNSNISTTAVSTIASTGTSATTSTVTTEPKDPIPWFGLTAQVVRNHGVELPIVKTENGWKLVGETPLTPDGPKANYTEEWVIRPGEADFKYGASPLQATLGLEFGAHFKWDLDNPNTKYAVLTNAAANALGALGGFAVSRFASTDPMLSPHIGAMVGQAAGHAIQYNTPGLKPDTILWWAGATLGAADLNKAEFEVARFTDYPRIWWHAREGAIFPNKADIEHATGADIRAMEEGIPVGQRHPNPEDVVIDIESNGLPHHNPSNHVDIFDIIQETRV,not soluble
13,MNIQSIETYQVRLPLKTPFVTSYGRLEEKAFDLFVITDEQGNQGFGELVAFEQPDYVQETLVTERFIIQQHLIPLLLTEAIEQPQEVSTIFEEVKGHWMGKAALETAIWDLYAKRQQKSLTEFFGPTRRKIPVGISLGIQEDLPQLLKQVQLAVEKGYQRVKLKIRPGYDVEPVALIRQHFPNLPLMVDANSAYTLADLPQLQRLDHYQLAMIEQPFAADDFLDHAQLQRELKTRICLDENIRSLKDCQVALALGSCRSINLKIPRVGGIHEALKIAAFCQENDLLVWLGGMFESGVGRALNLQFASQPTFSFPGDISATERYFYEDIITEPFILEQGTMTVPQGLGIGVTLSQTNLLKYSQYQKIM,not soluble
14,MNIVIAAVGGQGAVLTSKILGTLAQNLGKDVKVSEVHGMSQRGGSVVAYVKFGDKVYSPVVEKGTADIVLAFEMLEGARYVDYLKENGKLVVNTQRIDPMPVITGDMEYPADLGEKLEELNIGYIPVDALSLAKNAGTIKAVNVALIGVLAQNSNIKKEEWIKAIKDTVPEKFLELNLKAFELGYNL,not soluble
15,MNKIALFVDVQNIYYTCREAYQRQFNYRKLWQHLSTQGEIVSAVAYAIHRGDDGQLKFQDALRHIGFELKLKPFIQRSDGSAKGDWDVGITIDVLDAAPNVDTVILLSGDGDFAILLEKITQKYGVKAEVYGVPQLTAKALMDATTQFNPIDDVLLL,soluble
16,MNKILIIISCILIMLTAFSCRRNVFNPNIPPRTEFIEDPIANLSIPSKDATIKVTPVEASINGYDSKSGQYGKMVYGHFEHYFEFKGHYYLTAAYQYIYGYTNEVIMIGNTTLMNYPNGHILEIDVNDGFKMKEVKANLGRTVPEYTRIAKIANGNAYQDDTYIYVQDSAGANYFKTSDFKSWTDTLSTTPPAGTTKREAVTMNRVQITANNGITYTYVYTGGGLQFSIERLDNRMKQLAQRLETKFTFKEEDFNNHHMFDIGINISTGTTADYRINPVEYIENDTNYIWIGKQSPHQIWLMPVKKDGKDYLIRFVEHCAGGGYYTIKMLETNINTYKKEAETALSKALAAVASDKPQAEIEQACYESIKADANYKANQYFYDVATKMGGLQGFWVGSPAVTEAGFISPNKPLTHYVIEFIDIQQ,not soluble
17,MNKILLQCDNLCKRYQEGTVQTDVLHDVSFSIGEGEMMAIVGSSGSGKSTLLHLLGGLDTPTSGDVIFSGQPMSKLSSAAKAELRNQKLGFIYQFHHLLPDFTALENVAMPLLIGKKKPAEIDARAREMLHAVGLEHRATHRPSELSGGERQRVAIARALVNNPRLVLADEPTGNLDARNADSIFELLGELNRLQGTAFLVVTHDLQLAKRMSRQLEMRDGRLTAELSLMGAE,not soluble
18,MNKIRYPAVAGLFYPSHPDELIDMIEQCYLHKFGPKSMPVHGTYEKPIGLLCPHAGYVYSGPIQAHSYYELSKRVDALEETTVVILGPNHTGLGSGVSVMDGIWRTPLGDVKCDEEFVEELWRKCEIVDLDETAHLNEHSIEVQLPFLKHLELLNIAKFKIVPICMMFQDYETAVEVGYFIAKIAKELNRRIVVIASSDLTHYEPQEIASKKDAIVIKDILEMNEKELYEDVVNYNISMCGYGPVIAMLKAMKTLGAEKAKLLAYATSGDITGDYSAVVGYASAIVELEHHHHHH,soluble
19,MNKKNICALAVLSGLSFSAMALDCDPNLLPSWQDGASKTAIVNYVDQSTDASKKTFIPEQDRIAVFDNDGTLWSEKPYYFQLAFALDQVKNMAKEHPEWKTQEPFKSVLNNDIKNVFAGGEKALLDIVTATHSGMTVEEYQQTVAQWLEVAKDPHFNKAYTELTYKPMREMVTYLQDHDFKVYIVSGGGVDFMRTWAPEVYGIPEEQIIGSALKYKYDYNNSNPTVTKLGEILTIDDKAGKVENIQHIIGKKPVLAIGNSDGDHAMMQWATSQPNSMAMIVHHTDEAREWKYDRKSSVGHLDKAMDEANQRDNWYLIDMKNEWCTVY,soluble
